# B1: PDGF-CC: recombinant human PDGF-CC core domain homodimer, residues 230-345 of full-length PDGF-C (SEQ ID NO:40), produced in baculovirus infected insect cells (protein)
# chain: GRKSRVVDLNLLTEEVRLYSCTPRNFSVSIREELKRTDTIFWPGCLLVKRCGGNCACCLHNCNECQCVPSKVTKKYHEVLQLRPKTGVRGLHKSLTDVALEHHEECDCVCRGSTGG
# modifications: homodimer; PDGF-C core domain
# Key:
# NIH-3T3 fibroblast cells = assay: NIH-3T3 proliferation assay; type: cell-based; conditions: two days, different concentrations
# Experimental: (§1) Cell migration assays were performed on growth arrested confluent HMVEC, BAEC or hSMC cells. Cell monolayers were wounded with a rubber policeman and washed with serum-free medium. Dishes were then incubated for 20 hours in serum-free medium containing VEGF165, PDGF-AA, (R&D Systems, Minneapolis USA) or PDGF-CC. Each assay included two dishes per condition and was repeated three times independently. Cells were photographed at 40× magnification, and migration percentage corresponding to the ratio between area of the cells and the total area of the wound (Biocom visiol@b 2000 version 4.52, San Diego). For HMVEC proliferation assay, cells were seeded in 96-well plates (5 wells per condition), and incubated with VEGF, PDGF-AA, or PDGF-CC (50 ng/ml) after serum starvation. After 7 days, viable cells were counted using the cell Titer-glo luminescent cell viability assay. For NIH-3T3 and hSMC proliferation assay, cells cultured in 96-well plates were serum-starved overnight, followed by treatment with growth factors at different concentrations. Two days later, cell numbers were counted and proliferation percentage calculated, using cells cultured in medium containing 10% serum as control. Aortic ring assay was performed as described 51. […] Aortic rings were analysed at day 9 of culturing. […]
# human VEGFR-2 = molecular target: T1, human VEGFR-2 (Homo sapiens, UniProt P35968); assay: Binding to soluble VEGFR-2-Ig fusion protein; conditions: 35S-labeled protein in conditioned medium from 293 cells, precipitation with Ig-fusion protein
# T1 construct: soluble Ig-fusion proteins containing the extracellular domains of human VEGFR-1, VEGFR-2 and VEGFR-3; made in house; host or cells: human 293 EBNA cells, transient expression
# Experimental: To assess the interactions between full length and truncated PDGF-C and the VEGF receptors, full length and truncated PDGF-C were tested for their capacity to bind to soluble Ig-fusion proteins containing the extracellular domains of human VEGFR-1, VEGFR-2 and VEGFR-3 (Olofsson et al., Proc. Natl. Acad. Sci. USA, 1998 95:11709-11714). The fusion proteins, designated VEGFR-1-Ig, VEGFR-2-Ig and VEGFR-3-Ig, were transiently expressed in human 293 EBNA cells. All Ig fusion proteins were human VEGFRs. Cells were incubated for 24 hours after transfection, washed with Dulbecco's Modified Eagle Medium (DMEM) containing 0.2% bovine serum albumin and starved for 24 hours. The fusion proteins were then precipitated from the clarified conditioned medium using protein A-Sepharose beads (Pharmacia). The beads were combined with 100 microliters of 10× binding buffer (5% bovine serum albumin, 0.2% Tween 20 and 10 µg/ml heparin) and 900 microliter of conditioned medium from 293 cells that had been transfected with mammalian expression plasmids encoding full length or truncated PDGF-C or control vector, then metabolically labeled with ^35S-cysteine and methionine (Promix, Amersham) for 4 to 6 hours. […] Labeled proteins that were bound to the Ig-fusion proteins were analyzed by SDS-PAGE under reducing conditions. Radiolabeled proteins were detected using a phosphorimager analyzer.
# HMVEC = HMVEC proliferation assay; type: cell-based, human; conditions: 50 ng/ml, 7 days
# Experimental: as §1
# PDGFR-α = molecular target: T2, PDGFR-α (Mus musculus, UniProt P26618); assay: PDGFR-α activation in infarct border region (immunoprecipitation, pTyr Western blot); type: in vivo; conditions: compared to control, after coronary ligation
# T2 construct: from tissue; host or cells: mouse heart, infarct border region
# T2 sequence (P26618 25-1089): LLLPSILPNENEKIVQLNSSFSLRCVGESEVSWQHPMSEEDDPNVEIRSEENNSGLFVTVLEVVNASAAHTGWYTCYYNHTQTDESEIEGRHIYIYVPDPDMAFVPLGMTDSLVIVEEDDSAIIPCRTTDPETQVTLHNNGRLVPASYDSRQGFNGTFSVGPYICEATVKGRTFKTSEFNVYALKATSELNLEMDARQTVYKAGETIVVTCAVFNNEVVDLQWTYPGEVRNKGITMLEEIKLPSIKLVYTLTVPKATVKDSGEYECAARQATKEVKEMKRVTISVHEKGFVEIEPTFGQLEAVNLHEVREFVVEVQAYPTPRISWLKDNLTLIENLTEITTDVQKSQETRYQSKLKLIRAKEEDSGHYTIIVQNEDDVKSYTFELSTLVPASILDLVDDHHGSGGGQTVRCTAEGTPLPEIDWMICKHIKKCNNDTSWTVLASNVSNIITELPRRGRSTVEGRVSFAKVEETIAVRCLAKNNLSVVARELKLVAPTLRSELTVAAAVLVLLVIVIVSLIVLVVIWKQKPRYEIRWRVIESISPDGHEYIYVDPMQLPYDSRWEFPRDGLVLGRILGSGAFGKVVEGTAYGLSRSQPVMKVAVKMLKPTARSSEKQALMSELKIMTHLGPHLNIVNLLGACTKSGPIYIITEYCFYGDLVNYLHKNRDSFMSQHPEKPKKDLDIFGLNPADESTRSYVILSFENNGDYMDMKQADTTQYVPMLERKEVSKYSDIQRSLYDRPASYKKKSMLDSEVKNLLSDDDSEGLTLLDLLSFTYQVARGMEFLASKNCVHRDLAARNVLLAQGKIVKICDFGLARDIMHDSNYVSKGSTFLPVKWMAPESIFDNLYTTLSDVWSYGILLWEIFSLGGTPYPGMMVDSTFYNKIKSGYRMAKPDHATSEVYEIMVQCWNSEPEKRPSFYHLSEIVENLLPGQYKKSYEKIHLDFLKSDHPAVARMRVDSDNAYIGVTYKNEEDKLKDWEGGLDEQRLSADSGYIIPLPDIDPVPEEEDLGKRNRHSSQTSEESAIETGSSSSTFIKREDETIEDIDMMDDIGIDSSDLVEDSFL
# T1 sequence (P35968 20-764 limits assumed): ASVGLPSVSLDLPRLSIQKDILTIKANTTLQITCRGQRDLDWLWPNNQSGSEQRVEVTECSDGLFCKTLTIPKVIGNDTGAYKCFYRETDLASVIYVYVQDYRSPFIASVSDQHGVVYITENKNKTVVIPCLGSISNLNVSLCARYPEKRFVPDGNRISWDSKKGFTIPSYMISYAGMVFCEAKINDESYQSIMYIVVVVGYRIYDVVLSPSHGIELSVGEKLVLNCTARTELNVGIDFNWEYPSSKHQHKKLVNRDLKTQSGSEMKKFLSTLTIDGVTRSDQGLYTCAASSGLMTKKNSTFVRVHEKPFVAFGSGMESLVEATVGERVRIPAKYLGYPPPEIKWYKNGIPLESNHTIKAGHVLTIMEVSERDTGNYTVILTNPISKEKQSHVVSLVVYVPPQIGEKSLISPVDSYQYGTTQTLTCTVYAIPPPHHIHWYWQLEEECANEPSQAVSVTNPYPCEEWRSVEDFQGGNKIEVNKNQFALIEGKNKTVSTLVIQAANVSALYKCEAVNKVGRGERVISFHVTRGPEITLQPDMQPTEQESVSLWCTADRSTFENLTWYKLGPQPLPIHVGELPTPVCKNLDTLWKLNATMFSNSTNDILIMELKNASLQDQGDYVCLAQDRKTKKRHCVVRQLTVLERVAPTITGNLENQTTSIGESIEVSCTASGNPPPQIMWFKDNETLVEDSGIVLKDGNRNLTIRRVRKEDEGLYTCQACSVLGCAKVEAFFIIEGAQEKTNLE
molecule,measurement,setting,value
B1,proliferation of cultured NIH-3T3 fibroblast cells,NIH-3T3 fibroblast cells,stimulated
same,interaction with VEGFR-2-Ig,human VEGFR-2,failed to show any interaction
same,EC proliferation,HMVEC,no effect
same,amount of active PDGFR-α in the border region,PDGFR-α,increased
